Test results taken from US20170267738A1 (IMMATICS BIOTECHNOLOGIES, published 2017).
Blank lines part the entries; values can stand above or below the binder they belong to.

Target: MHC/MAG-003 complex on target cells (human)
Test: cell-based or functional assay

EC50 (target peptide titration, IFN-γ release): ~10 nM
B1: TCR R10P2G12 (TCR, V domains shown)
V domain 1: AQKVTQAQTEISVVEKEDVTLDCVYETRDTTYYLFWYKQPPSGELVFLIRRNSFDEQNEISGRYSWNFQKSTSSFNFTITASQVVDSAVYFCALSEGNSGNTPLVFGKGTRLSVIA
V domain 2: DVKVTQSSRYLVKRTGEKVFLECVQDMDHENMFWYRQDPGLGLRLIYFSYDVKMKEKGDIPEGYSVSREKKERFSLILESASTNQTSMYLCASSLSSGSHQETQYFGPGTRLLVLE

EC50 (target peptide titration, IFN-γ release): ~10 nM
B2: TCR R20P1H7 (TCR, V domains shown)
V domain 1: EDQVTQSPEALRLQEGESSSLNCSYTVSGLRGLFWYRQDPGKGPEFLFTLYSAGEEKEKERLKATLTKKESFLHITAPKPEDSATYLCAVQGENSGYSTLTFGKGTMLLVSP
V domain 2: EAQVTQNPRYLITVTGKKLTVTCSQNMNHEYMSWYRQDPGLGLRQIYYSMNVEVTDKGDVPEGYKVSRKEKRNFPLILESPSPNQTSLYFCASSLGPGLAAYNEQFFGPGTRLTVLE
